From paper PMC11169713 (2024) come the findings set out here.

Among the targets are MEDI8852 mature; MEDI8852 UCA; 56.a.09 mature; 56.a.09 UCA.
Holding throughout (assay): SPR

B1: 28H6E11 Fab (anti-idiotype antibody) (Fab, V domains shown)
VH: QVQLQQSGPEVVRPGVSVKISCKGSGYTFTDHAMHWVKQSHAKSLEWIGVFNTYNGDTNYNQKFEDKATMTIDKSSSTAYLELARLTSEDSAIYYCVRLGLLGFYALDYWGQGTSVTVSS
VL: DVLMTQTPLSLPVSLGDQASISCRSSQSIVHSNGNTYLEWYLQKPGQSPKLLIYKVSNRFSGVPDRFSGSGSGTDFTLKISRVEAEDLGVYYCFQGSHVPLTFGAGTKLELK
As for B1, the dissociation constant (Kd) was 941 nM with MEDI8852 mature, 0.943 nM with MEDI8852 UCA, 496 nM with 56.a.09 mature and 32500 nM in the assay with 56.a.09 UCA.

As a reminder, the Kd is the constant that tells how readily two partners part at equilibrium. Lower therefore signals higher affinity.
